# Measured values from paper PMC3296131.
# Target: CNGB3N-EGFP-F (striped bass (Morone saxatilis)) (UniProt Q3I0N1)
# Test: FRET or BRET
substance,measurement,value
CNG-modulin-HaloTag-TMR (from UniProt H8PG32 1-301) (natural protein),"E FRET (FRET efficiency), mean",0.3
